The assay deals with rat GIP receptor (rat) (UniProt P43219). Put plainly: cell-based or functional assay.
Sequence of UniProt P43219 (P43219 19-455): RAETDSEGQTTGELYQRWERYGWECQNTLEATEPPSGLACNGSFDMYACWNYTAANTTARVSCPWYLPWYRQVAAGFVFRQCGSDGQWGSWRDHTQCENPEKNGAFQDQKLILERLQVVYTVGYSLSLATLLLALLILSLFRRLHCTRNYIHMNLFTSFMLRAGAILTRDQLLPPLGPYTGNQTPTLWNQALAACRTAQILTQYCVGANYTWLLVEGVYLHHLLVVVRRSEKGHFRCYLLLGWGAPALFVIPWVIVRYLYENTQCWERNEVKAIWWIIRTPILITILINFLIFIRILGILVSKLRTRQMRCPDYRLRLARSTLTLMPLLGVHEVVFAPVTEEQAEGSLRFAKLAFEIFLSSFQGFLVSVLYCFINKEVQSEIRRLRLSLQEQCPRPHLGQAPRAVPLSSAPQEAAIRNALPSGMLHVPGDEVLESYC

“synthetic porcine GIP (Sigma) (from UniProt P01281 1-42) (peptide)” displayed a cell proliferation (CyQUANT DNA content) of cultured adult hippocampal progenitor cells, 1 nM GIP, 48 h (% increase relative to control) of 74.5 and a methyl-[3H]-thymidin incorporation in cultured adult hippocampal progenitor cells, 1 nM GIP, 24 h (% increase compared to control) of 32.4.

The record behind these values is patent publication US20050245441A1.
